Assay [1] has as its target T1, amino-terminal (endodomain) truncate of CD20 (human, UniProt P11836 42-297).
T1 construct: Expressed on transfected 293T cells, fused or co-expressed with eGFP (the text and the legend differ); As expressed in dCD20-FAS, the construct carries an extra N-terminal MG; also called dCD20
T1 sequence: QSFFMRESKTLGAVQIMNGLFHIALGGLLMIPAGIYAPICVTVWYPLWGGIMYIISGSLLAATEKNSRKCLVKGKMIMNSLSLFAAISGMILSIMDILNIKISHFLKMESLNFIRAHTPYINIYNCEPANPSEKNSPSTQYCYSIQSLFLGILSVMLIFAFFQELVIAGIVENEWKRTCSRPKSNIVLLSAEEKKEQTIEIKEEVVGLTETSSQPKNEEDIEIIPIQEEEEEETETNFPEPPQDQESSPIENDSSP
Put plainly: flow cytometry, transfected 293T cells. From the text: (§1) To this end: full-length CD20; an amino-terminal (endodomain) truncate of CD20; and a carboxy-terminal (endodomain) truncate of CD20 were each fused with eGFP.

Assay [2] has as its target T2, carboxy-terminal (endodomain) truncate of CD20 (human, UniProt P11836 2-236).
T2 construct: Expressed on transfected 293T cells, fused or co-expressed with eGFP (the text and the legend differ); also called CD20d
T2 sequence: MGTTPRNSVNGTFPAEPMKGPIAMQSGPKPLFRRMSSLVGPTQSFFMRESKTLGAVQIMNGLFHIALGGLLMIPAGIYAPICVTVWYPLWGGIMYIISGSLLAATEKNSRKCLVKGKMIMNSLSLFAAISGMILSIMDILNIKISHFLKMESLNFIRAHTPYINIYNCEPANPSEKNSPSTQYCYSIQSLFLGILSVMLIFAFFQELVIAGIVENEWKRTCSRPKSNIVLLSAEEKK
Put plainly: flow cytometry, transfected 293T cells.
Source text: as §1

Assay [3] concerns the target T3, CD20-P172W (human, UniProt P11836 1-297).
T3 construct: also called P172W mutated CD20
T3 sequence: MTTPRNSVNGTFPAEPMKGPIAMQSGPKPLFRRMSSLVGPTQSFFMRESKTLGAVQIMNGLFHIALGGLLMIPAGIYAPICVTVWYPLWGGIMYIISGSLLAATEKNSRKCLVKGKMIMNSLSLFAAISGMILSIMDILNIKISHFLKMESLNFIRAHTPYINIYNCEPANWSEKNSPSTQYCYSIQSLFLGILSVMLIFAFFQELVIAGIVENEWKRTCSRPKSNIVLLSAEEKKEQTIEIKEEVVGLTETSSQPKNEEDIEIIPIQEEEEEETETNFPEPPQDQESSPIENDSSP
Description: flow cytometry staining of transfected 293T cells.

B1: Rituximab (antibody, V domains shown)
VH: QVQLQQPGAELVKPGASVKMSCKASGYTFTSYNMHWVKQTPGRGLEWIGAIYPGNGDTSYNQKFKGKATLTADKSSSTAYMQLSSLTSEDSAVYYCARSTYYGGDWYFNVWGAGTTVTVS
VL: QIVLSQSPAILSASPGEKVTMTCRASSSVSYIHWFQQKPGSSPKPWIYATSNLASGVPVRFSGSGSGTSYSLTISRVEAEDAATYYCQQWTSNPPTFGGGTKLEIKR
notes: also called Rituxumab; Rituxan
For B1, the binding result in assay [1] is recorded as “binds”; in assay [2], “binds”; in assay [3] it was “no binding”.
